Data reported in paper PMC6886308, “NADP(H) allosterically regulates the interaction between ferredoxin and ferredoxin‐NADP^+ reductase” (FEBS Open Bio, 2019).
Residue numbers refer to the chain shown, from its start. Names may count otherwise.

Columns and labels:
[1] = target: maize leaf ferredoxin-NADP+ reductase R235Q (maize)
[2] = target: maize leaf ferredoxin-NADP+ reductase R244Q (maize)
[3] = target: maize leaf ferredoxin-NADP+ reductase Y314S (maize)
[4] = target: maize leaf ferredoxin-NADP+ reductase, wild-type (maize)
[5] = target: maize leaf ferredoxin-NADP+ reductase R235Q (maize); experiment: ITC; 500 uM Fd I in the syringe titrated into 50 uM L-FNR in the cell; 50 mM Tris/HCl pH 7.5, no NaCl, 298 K; one set of independent binding sites; 0 uM NADP+
[6] = target: maize leaf ferredoxin-NADP+ reductase R244Q (maize); experiment: as above
[7] = target: maize leaf ferredoxin-NADP+ reductase Y314S (maize); experiment: as above
[8] = target: maize leaf ferredoxin-NADP+ reductase, wild-type (maize); experiment: as above
[9] = target: maize leaf ferredoxin-NADP+ reductase R235Q (maize); experiment: ITC; 500 uM Fd I in the syringe titrated into 50 uM L-FNR in the cell; 50 mM Tris/HCl pH 7.5, no NaCl, 298 K; one set of independent binding sites; 50 uM NADP+
[10] = target: maize leaf ferredoxin-NADP+ reductase R244Q (maize); experiment: as above
[11] = target: maize leaf ferredoxin-NADP+ reductase Y314S (maize); experiment: as above
[12] = target: maize leaf ferredoxin-NADP+ reductase, wild-type (maize); experiment: as above
[13] = target: maize leaf ferredoxin-NADP+ reductase R235Q (maize); experiment: ITC; 500 uM Fd I in the syringe titrated into 50 uM L-FNR in the cell; 50 mM Tris/HCl pH 7.5, no NaCl, 298 K; one set of independent binding sites; 500 uM NADP+
[14] = target: maize leaf ferredoxin-NADP+ reductase R244Q (maize); experiment: as above
[15] = target: maize leaf ferredoxin-NADP+ reductase Y314S (maize); experiment: as above
[16] = target: maize leaf ferredoxin-NADP+ reductase, wild-type (maize); experiment: as above
[17] = target: T1, maize leaf FNR (L‐FNR) (Zea mays, UniProt Q9SLP6); experiment: ITC of Fd I binding to FNR in presence of ligand; Fd-affinity chromatography; settings: 0-500 μM NADP+ (ITC); 50 mM Tris/HCl, pH 7.5; 298 K; allosteric on Fd binding
T1 construct: gene L-FNRI; recombinant mature leaf FNR, FAD flavoprotein, C-terminal Tyr314
T1 sequence (Q9SLP6 42-355): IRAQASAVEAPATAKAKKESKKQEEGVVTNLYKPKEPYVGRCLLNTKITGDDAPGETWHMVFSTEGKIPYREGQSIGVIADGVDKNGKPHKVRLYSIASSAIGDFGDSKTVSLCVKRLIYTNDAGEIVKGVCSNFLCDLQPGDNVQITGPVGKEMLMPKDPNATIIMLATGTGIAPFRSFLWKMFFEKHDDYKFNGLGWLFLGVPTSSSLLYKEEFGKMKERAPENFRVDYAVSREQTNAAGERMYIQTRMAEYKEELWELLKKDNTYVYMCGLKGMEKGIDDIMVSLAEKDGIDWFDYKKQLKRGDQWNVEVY

[18] = substrate: NC(=O)C1=CN([C@@H]2O[C@H](COP(=O)(O)OP(=O)(O)OC[C@H]3O[C@@H](n4cnc5c(N)ncnc54)[C@H](OP(=O)(O)O)[C@@H]3O)[C@@H](O)[C@H]2O)C=CC1; experiment: NADPH-dependent diaphorase assay; assay type: biochemical, Zea mays; settings: DCPIP as electron acceptor
Excerpt: NADPH-dependent diaphorase assay on maize leaf FNR (L‐FNR)

Q: Which Km for Fd in NADPH-dependent cyt c reduction, at 50 uM, 250 uM, 500 uM and 1 mM NADPH (0.30 to 5.0 uM) [1] does the source give for “maize leaf ferredoxin I (from UniProt P27787 53-150) (natural protein)” here?
A: 5 µM

Q: And the Km for Fd in NADPH-dependent cyt c reduction, at 50 uM, 250 uM, 500 uM and 1 mM NADPH (0.75 to 6.9 uM) [2]?
A: 6.9 µM

Q: And the Km for Fd in NADPH-dependent cyt c reduction, at 50 uM, 250 uM and 500 uM NADPH (17, 13, 18 uM; not determined at 1 mM) [3]?
A: 18 µM

Q: And the apparent Km for Fd in NADPH-dependent cyt c reduction, at 50 uM, 250 uM, 500 uM and 1 mM NADPH (3.5 to 44 uM) [4]?
A: 44 µM

Q: And the Kd [5]?
A: 870 nM

Q: What about the dH [5] of the same molecule?
A: 8.3 kcal/mol

Q: And the stoichiometry N [5]?
A: 0.7

Q: And the Kd [6]?
A: 760 nM

Q: What about the dH [6] of the same molecule?
A: 8.3 kcal/mol

Q: And the stoichiometry N [6]?
A: 0.7

Q: And the Kd [7]?
A: 2200 nM

Q: What about the dH [7] of the same molecule?
A: 5.6 kcal/mol

Q: What about the stoichiometry N [7] of the same molecule?
A: 0.7

Q: What about the Kd [8] of the same molecule?
A: 1200 nM

Q: And the dH [8]?
A: 9.8 kcal/mol

Q: And the stoichiometry N [8]?
A: 0.7

Q: What about the Kd [9] of the same molecule?
A: 780 nM

Q: And the dH [9]?
A: 7.3 kcal/mol

Q: And the stoichiometry N [9]?
A: 0.7

Q: And the Kd [10]?
A: 790 nM

Q: What about the dH [10] of the same molecule?
A: 7.4 kcal/mol

Q: And the stoichiometry N [10]?
A: 0.8

Q: And the Kd [11]?
A: 2600 nM

Q: What about the dH [11] of the same molecule?
A: 4.3 kcal/mol

Q: And the stoichiometry N [11]?
A: 0.7

Q: What about the Kd [12] of the same molecule?
A: 1600 nM

Q: And the dH [12]?
A: 8.8 kcal/mol

Q: What about the stoichiometry N [12] of the same molecule?
A: 0.7

Q: And the Kd [13]?
A: 1300 nM

Q: And the dH [13]?
A: 6.3 kcal/mol

Q: And the stoichiometry N [13]?
A: 0.9

Q: And the Kd [14]?
A: 1100 nM

Q: What about the dH [14] of the same molecule?
A: 5.8 kcal/mol

Q: And the stoichiometry N [14]?
A: 1

Q: What about the Kd [15] of the same molecule?
A: 2300 nM

Q: And the dH [15]?
A: 3.6 kcal/mol

Q: What about the stoichiometry N [15] of the same molecule?
A: 0.7

Q: What about the Kd [16] of the same molecule?
A: 3700 nM

Q: And the dH [16]?
A: 6.7 kcal/mol

Q: What about the stoichiometry N [16] of the same molecule?
A: 0.8

Q: NC(=O)c1ccc[n+]([C@@H]2O[C@H](COP(=O)(O)OP(=O)(O)OC[C@H]3O[C@@H](n4cnc5c(N)ncnc54)[C@H](OP(=O)(O)O)[C@@H]3O)[C@@H](O)[C@H]2O)c1 [NADP^+] was tested. Which “ITC of Fd I binding to FNR in presence of ligand; Fd-affinity chromatography” value [17] did it give?
A: The resulting dissociation constant (K d) increased by addition of NADP^+ into the titration reaction

B1: maize leaf FNR (L‐FNR) (Zea mays) (protein)
chain: T1 sequence (Q9SLP6 42-355)
notes: recombinant mature leaf FNR, FAD flavoprotein, C-terminal Tyr314
Q: Which results are given for B1?
A: Km [18]: 46 ± 3 µM; kcat [18]: 76 ± 14 s⁻¹

B2: maize leaf FNR (L‐FNR) (Zea mays; R276Q) (protein)
chain: T1 sequence (Q9SLP6 42-355) with R235Q
notes: as for B1
Q: B2 was tested. Which Km [18] did it give?
A: 500 ± 120 µM

Q: And the kcat [18]?
A: 60 ± 7 s⁻¹

B3: maize leaf FNR (L‐FNR) (Zea mays; R285Q) (protein)
chain: T1 sequence (Q9SLP6 42-355) with R244Q
notes: as for B1
Q: Which results are given for B3?
A: Km [18]: 310 ± 60 µM; kcat [18]: 139 ± 13 s⁻¹

B4: maize leaf FNR (L‐FNR) (Zea mays; Y355S) (protein)
chain: T1 sequence (Q9SLP6 42-355) with Y314S
notes: as for B1
Q: What does the source list for B4?
A: Km [18]: 0.27 ± 0.08 µM; kcat [18]: 41 ± 6 s⁻¹
